Test results taken from patent US20230159653A1.

Target: ADAM17 (UniProt P78536)
Experiment: BLI (Octet Red96, 25 C), antibody captured on anti-human Fab-CH1 (FAB2G) biosensor, antigen in solution

Kd | koff | kon | Binder
4.9 nM | 0.0012 s⁻¹ | 240000 M⁻¹ s⁻¹ | D5.P2.B3 (Fab, V domains shown) VH: QVQLQQSGAEVKKPGASVKVSCKASGYTFTGYYMHWVRQAPGQGLEWMGWINGNSGGTNYAQKFQGRVTMTRDTSISTAYMELSRLKSDNTAVYYCASSGSMDVWGQGTLVTVSS VL: QSVVTQPPSVSGAPGQRVTISCSGSSSNVGRNLVYWYQQLPGAAPRLLIYRNNQRPSGVPDRFSGSKSGTSASLAISGLRSEDEADYYCAAWDDSLSGVVFGGGTKLTVLG
5.3 nM | 0.0023 s⁻¹ | 430000 M⁻¹ s⁻¹ | D5.P1.A4 (Fab, V domains shown) VH: QVQLQQSGAEVKKPGASVKVSCKASGYTFTGYYMHWVRQAPGQGLEWMGWINGKSGGTNYAQKFQGRVTMTRDTSISTAYMELSRLKSDDTAVYYCARLDRRDYWGQGTLVTVSS VL: QSVVTQPPSVSGAPGQRVTISCSGSSSNVGRNLVYWYQQLPGAAPRLLIYRNNQRPSGVPDRFSGSKSGTSASLAISGLRSEDEADYYCAAWDDSLSGVVFGGGTKLTVLG
